According to the supplement of paper PMC9170038:

Test system: MS2 coat protein
Test: apparent KD of MS2 coat protein; designed switch direction (-1 OFF switch, 1 ON switch): 1; higher = weaker reporter binding
Outline: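 Designed RNA switches with common flanks were made on Illumina chips by stalled E. coli RNA polymerase. Titration with SNAP-549-labelled MS2 coat protein doubled from 0.7 or 1.5 nM up to 3 µM. Apparent KD is each design's median over clusters after curve-fitting normalised fluorescence.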

[1] = input ligand: microRNA oligo, concentration not stated
[2] = Eterna round: R95, input ligand: FMN 200 uM
[3] = Eterna round: R95, input ligand: microRNA oligo, concentration not stated
[4] = Eterna round: R95, input ligand: none

GACAAUCUAUCUGAGGAUAUCAUGAAAAAAACAUGAGGAUCACCCAUGUGCAGGAAAACUGCAUAUGAGAAGGCAGAUAGAUUGC [salish99_SS2_r3_012] (Eterna round: R96, puzzle: Same State 2)
apparent KD of MS2 coat protein [1]: 429 nM

CGGUGAGAGACAGGAUAUCGAGCCUAACGAGGCCGAGAAGGGUCGCCCGAAGCGACCGACAUGAGGAUCACCCAUGUAGAAAGA [Eternabot solution 21] (Eterna round: R96, puzzle: Same State NG 1)
apparent KD of MS2 coat protein (input ligand: FMN 200 uM): 34.2 nM
apparent KD of MS2 coat protein [1]: 30 nM
apparent KD of MS2 coat protein (input ligand: none): 40.4 nM

UUGAAGAAUUAAGGAUAUUGAAUACAUAUGUUUAACAUGAGGAUCACCCAUGUGGGUUGCGGUGUCGAGAAGGUAAAAUAAUAG [Mat - same State NG 2 - JL mod - D95] (Eterna round: R96, puzzle: Same State NG 2)
apparent KD of MS2 coat protein (input ligand: FMN 200 uM): 194 nM
apparent KD of MS2 coat protein [1]: 124 nM
apparent KD of MS2 coat protein (input ligand: none): 329 nM

AUGGUGCAGGUACAGGAUAUGUUGCUCGUAACAUGAGGAUCACCCAUGUACCUAUGAGAUUAAAUGCAGAAGGGUGCACACCAAA [Mat - Same State 2 - Mod of UCT - D90] (puzzle: Same State 2)
apparent KD of MS2 coat protein [2]: 39.7 nM
apparent KD of MS2 coat protein [3]: 507 nM
apparent KD of MS2 coat protein [4]: 707 nM

UGAUCGCUUGGAGGAUAUCCAACUAUCCUAGUUGGAGAAGGCCAAGCUACAGAGCUAAGCUUGGAAGUCACUUCGAAUCAACAC [pwkr ssNG1 F9.4] (Eterna round: R96, puzzle: Same State NG 1)
apparent KD of MS2 coat protein (input ligand: FMN 200 uM): 2.23 nM
apparent KD of MS2 coat protein [1]: 129 nM
apparent KD of MS2 coat protein (input ligand: none): 155 nM

UGAAUAGUUACAGGAUAUGAGCCGUAAAUUGGGUCAGAAGGGUGGGUGUUCUGCGCUGUGUGUUACAUGAGGAUCACCCAUGUU [SameState NG1 #31] (Eterna round: R96, puzzle: Same State NG 1)
apparent KD of MS2 coat protein (input ligand: FMN 200 uM): 162 nM
apparent KD of MS2 coat protein [1]: 34.9 nM
apparent KD of MS2 coat protein (input ligand: none): 63.4 nM

GGUCGGUCCAACAUGAGGAUCACCCAUGUACCGGAAACGGCAUAGGAUAUCUGUCCGAAAAGGUCAGAGAAGGGUGAACCGACC [Fiskers NG3ss - 72] (Eterna round: R96, puzzle: Same State NG 3)
apparent KD of MS2 coat protein (input ligand: FMN 200 uM): 421 nM
apparent KD of MS2 coat protein [1]: 586 nM
apparent KD of MS2 coat protein (input ligand: none): 229 nM

AGGUGGUGUGGAAAGGAUAUACGGUUGAGGACAUGAGGAUCACCCAUGUGGUAGAGGACGUGAGUGUAGAAGGUUCGGGAUUGGU [JR_SS@_Sub023] (puzzle: Same State 2)
apparent KD of MS2 coat protein [3]: 48.5 nM

GUAGCAUACCGAGGAUAUUCAUAUAAUAAAUACAUGAGGAUCACCCAUGUUAGGCGAAAGCCUUGGGAGAAGGCGGAAUGCUAC [Xeonanis - 20 Mod58] (Eterna round: R96, puzzle: Same State NG 2)
apparent KD of MS2 coat protein (input ligand: FMN 200 uM): 14.4 nM
apparent KD of MS2 coat protein [1]: 35.8 nM
apparent KD of MS2 coat protein (input ligand: none): 44.8 nM

CAGUGCUGUCGAGAGGAUAUGCGGUGAUGGACAUGAGGAUCACCCAUGUUAGCGACAGCGUUACGGCAGAAGGCUCUACCCACUG [Soteed Omei mod 47] (puzzle: Same State 2)
apparent KD of MS2 coat protein [2]: 62.5 nM
apparent KD of MS2 coat protein [3]: 28.7 nM
apparent KD of MS2 coat protein [4]: 42.7 nM

AAGCUCGUGUGAGGAUAUGCCGCCGUUUCGGCUGCAGAAGGUGCUACGUUACAUGAGGAUCACCCAUGUCUCUGUUGUUUCGUU [salish99_SSNG1_r04_951] (Eterna round: R96, puzzle: Same State NG 1)
apparent KD of MS2 coat protein (input ligand: FMN 200 uM): 18.7 nM
apparent KD of MS2 coat protein [1]: 15.9 nM
apparent KD of MS2 coat protein (input ligand: none): 20.8 nM

UAUCCAUAGAUAGGAUAUCAGUAUACAUGAGGAUCACCCAUGUUAUACUUGGUUUUAAGUUAGUCUGAGAAGGAUCUUGAUGAA [SameState NG2 #4] (Eterna round: R96, puzzle: Same State NG 2)
apparent KD of MS2 coat protein (input ligand: FMN 200 uM): 12.6 nM
apparent KD of MS2 coat protein [1]: 11 nM
apparent KD of MS2 coat protein (input ligand: none): 12.9 nM

GUAGAUAUAAAGGAGGAUAUUCAAUGAGAGACAUGAGGAUCACCCAUGUGAGAGUGAGAUGAUAGGAAGAAGGCUUAGAGAGAUG [Altered State 2-6 - Jieux - Same State 2] (puzzle: Same State 2)
apparent KD of MS2 coat protein [2]: 64.1 nM
apparent KD of MS2 coat protein [3]: 54.9 nM
apparent KD of MS2 coat protein [4]: 72 nM

GCUGGAAACCACAUGAGGAUCACCCAUGUUCCGGAAACGGCACAGGAUAUCUGUCCGAAAAGGUCAGAGAAGGGUGUAACCAGC [Fiskers NG3ss - 86] (Eterna round: R96, puzzle: Same State NG 3)
apparent KD of MS2 coat protein (input ligand: FMN 200 uM): 190 nM
apparent KD of MS2 coat protein [1]: 338 nM
apparent KD of MS2 coat protein (input ligand: none): 245 nM

CCCUCAUGCAGGCUAACACGCUUGUUUUAACAUGAGGAUCACCCAUGUACGUCGCCGUUUCGUGCGGGACGCGCAGA [Anuscear] (Eterna round: R96, puzzle: Sensor for hsa-mir-208a)
apparent KD of MS2 coat protein (input ligand: FMN 200 uM): 363 nM
apparent KD of MS2 coat protein [1]: 229 nM
apparent KD of MS2 coat protein (input ligand: none): 169 nM

GUAGCAGGCACAGGAUAUGUUGACCAGGGAGUACAUGAGGAUCACCCAUGUCCGACACACCGGCAAUAGAAGGGUGAGUGGCAG [Eternabot solution 17] (Eterna round: R96, puzzle: Same State NG 2)
apparent KD of MS2 coat protein (input ligand: FMN 200 uM): 35.8 nM
apparent KD of MS2 coat protein [1]: 44.9 nM
apparent KD of MS2 coat protein (input ligand: none): 78.1 nM

CUGAGCAGUCAAGGAUAUCACGUCGUUUAGACGUGAGAAGGUGACCAAUACAUGAGGAUCACCCAUGUAAUACAUGAAGCUCAG [SSNG1/12-A3] (Eterna round: R96, puzzle: Same State NG 1)
apparent KD of MS2 coat protein (input ligand: FMN 200 uM): 16.2 nM
apparent KD of MS2 coat protein [1]: 17.8 nM
apparent KD of MS2 coat protein (input ligand: none): 37.2 nM

AAACAUGAGCGAGGAUAUGCGGAGGAUCACCCUGUAGAAGGCGCAUGUAAAACAACAUGAGGAUCACCCAUGUCAUGUACAUAA (Eterna round: R96, puzzle: Same State NG 1)
apparent KD of MS2 coat protein (input ligand: FMN 200 uM): 77.5 nM
apparent KD of MS2 coat protein [1]: 144 nM
apparent KD of MS2 coat protein (input ligand: none): 223 nM

UUGAAGAAUUAAGGAUAUUGAUUACAUAUGUUAAACAUGAGGAUCACCCAUGUGGGUUGCGGUAUCGAGAAGGUAAAUUACUAG [Mat - same State NG 2 - JL mod - D76] (Eterna round: R96, puzzle: Same State NG 2)
apparent KD of MS2 coat protein (input ligand: FMN 200 uM): 63.3 nM
apparent KD of MS2 coat protein [1]: 74.1 nM
apparent KD of MS2 coat protein (input ligand: none): 87.3 nM

GUGGUGUAGAUACAGGAUAUGUUGCUCGUAACAUGAGGAUCACCCAUGUAUCUAUGAGAUUAAAUGCAGAAGGGUGCACACCACU [salish99_ss2_r3_086] (puzzle: Same State 2)
apparent KD of MS2 coat protein [2]: 15.7 nM
apparent KD of MS2 coat protein [3]: 148 nM
apparent KD of MS2 coat protein [4]: 325 nM

UGUUGUAUUACAGGAUAUCUAUUGUUUUUGUUUAGAGAAGGGUAUUCACAUGAGGAUCACCCAUGUAUAUACGAGGAAGUUGUG [JMF's solution 80] (Eterna round: R96, puzzle: Same State NG 1)
apparent KD of MS2 coat protein [1]: 45 nM

CGGGUACAUGAGGAUCACCCAUGUAGAAGAGAUGCAGGAUAUGUGGGAAAAGGGAAUGUAACAGAAGGGCAAGGAG [JR_SS!_Sub017] (puzzle: Same State 1)
apparent KD of MS2 coat protein [2]: 47.4 nM
apparent KD of MS2 coat protein [3]: 56.1 nM
apparent KD of MS2 coat protein [4]: 94.1 nM

UGGCUGAGUCGAGGAUAUGAUCUUCAUAUAUAUACAUGAGGAUCACCCAUGUAUAAUUACAUGGAUCAGAAGGCGACUCAGCCA [SSNG2/13-A1] (Eterna round: R96, puzzle: Same State NG 2)
apparent KD of MS2 coat protein [1]: 22.9 nM
